# Earlier results in paper PMC3791837.
# Target: FcγRIIA (Homo sapiens) (UniProt P12318)
# Test: confocal analysis of transfected cells
# UniProt P12318, sequence (P12318 34-217): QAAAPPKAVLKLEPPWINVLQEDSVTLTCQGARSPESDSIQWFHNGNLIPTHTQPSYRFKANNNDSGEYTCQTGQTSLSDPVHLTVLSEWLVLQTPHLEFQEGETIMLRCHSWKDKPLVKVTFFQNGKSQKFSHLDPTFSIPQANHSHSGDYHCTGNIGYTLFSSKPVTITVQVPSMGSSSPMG
substance,measurement,value
CRP (from UniProt P02741),Kd,3.7 µM
